Results as given in PMC12813973, “Consequences of Peptide Macrocyclization Revealed by Virus-Inspired β‑Hairpin Mimetics” (ACS Chemical Biology, 2025).
Where two headings read alike, the source gives them in different places.

Assays:
[1] = biological target: T1, 018 minimal fragment (peptide 1) 11-30 (Vaccinia virus), P17356
[2] = biological target: T1, 018 minimal fragment (peptide 1) 11-30 …; experiment: competition
[3] = biological target: T1, 018 minimal fragment (peptide 1) 11-30 …; experiment: ITC

T1 sequence (P17356 11-30): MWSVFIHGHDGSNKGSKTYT

B1: STAT1, P42224 (protein)
chain: SQWYELQQLDSKFLEQVHQLYDDSFPMEIRQYLAQWLEKQDWEHAANDVSFATIRFHDLLSQLDDQYSRFSLENNFLLQHNIRKSKRNLQDNFQEDPIQMSMIIYSCLKEERKILENAQRFNQAQSGNIQSTVMLDKQKELDSKVRNVKDKVMCIEHEIKSLEDLQDEYDFKCKTLQNREHETNGVAKSDQKQEQLLLKKMYLMLDNKRKEVVHKIIELLNVTELTQNALINDELVEWKRRQQSACIGGPPNACLDQLQNWFTIVAESLQQVRQQLKKLEELEQKYTYEHDPITKNKQVLWDRTFSLFQQLIQSSFVVERQPCMPTHPQRPLVLKTGVQFTVKLRLLVKLQELNYNLKVKVLFDKDVNERNTVKGFRKFNILGTHTKVMNMEESTNGSLAAEFRHLQLKEQKNAGTRTNEGPLIVTEELHSLSFETQLCQPGLVIDLETTSLPVVVISNVSQLPSGWASILWYNMLVAEPRNLSFFLTPPCARWAQLSEVLSWQFSSVTKRGLNVDQLNMLGEKLLGPNASPDGLIPWTRFCKENINDKNFPFWLWIESILELIKKHLLPLWNDGCIMGFISKERERALLKDQQPGTFLLRFSESSREGAITFTWVERSQNGGEPDFHAVEPYTKKELSAVTFPDIIRNYKVMAAENIPENPLKYLYPNIDKDHAFGKYYSRPKEAPEPMELDGPKGTGYIKTELISVSEVHPSRLQTTDNLLPMSPEEFDEVSRIVGSVEFDSMMNTV
[1]
  Kd: 73 nM
[2]
  IC50: 4300 nM
[3]
  Kd: 533 nM
